Test results taken from patent US20160108416.

Tests used:
[1] = biological target: atToc159 (At4g02510) (UniProt O81283)
[2] = biological target: T1, atToc33 (At1g02280) (UniProt O23680)
T1 sequence: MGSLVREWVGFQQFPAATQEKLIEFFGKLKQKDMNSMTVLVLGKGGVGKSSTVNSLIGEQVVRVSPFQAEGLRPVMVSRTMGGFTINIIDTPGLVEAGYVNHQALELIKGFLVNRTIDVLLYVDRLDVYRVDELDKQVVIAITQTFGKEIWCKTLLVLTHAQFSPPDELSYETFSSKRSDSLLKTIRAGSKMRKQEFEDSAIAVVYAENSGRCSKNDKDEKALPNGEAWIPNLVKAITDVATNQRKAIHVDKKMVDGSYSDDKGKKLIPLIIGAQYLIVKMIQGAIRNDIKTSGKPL

[3] = biological target: T2, atToc75-III (At3g46740) (UniProt Q9STE8)
T2 sequence: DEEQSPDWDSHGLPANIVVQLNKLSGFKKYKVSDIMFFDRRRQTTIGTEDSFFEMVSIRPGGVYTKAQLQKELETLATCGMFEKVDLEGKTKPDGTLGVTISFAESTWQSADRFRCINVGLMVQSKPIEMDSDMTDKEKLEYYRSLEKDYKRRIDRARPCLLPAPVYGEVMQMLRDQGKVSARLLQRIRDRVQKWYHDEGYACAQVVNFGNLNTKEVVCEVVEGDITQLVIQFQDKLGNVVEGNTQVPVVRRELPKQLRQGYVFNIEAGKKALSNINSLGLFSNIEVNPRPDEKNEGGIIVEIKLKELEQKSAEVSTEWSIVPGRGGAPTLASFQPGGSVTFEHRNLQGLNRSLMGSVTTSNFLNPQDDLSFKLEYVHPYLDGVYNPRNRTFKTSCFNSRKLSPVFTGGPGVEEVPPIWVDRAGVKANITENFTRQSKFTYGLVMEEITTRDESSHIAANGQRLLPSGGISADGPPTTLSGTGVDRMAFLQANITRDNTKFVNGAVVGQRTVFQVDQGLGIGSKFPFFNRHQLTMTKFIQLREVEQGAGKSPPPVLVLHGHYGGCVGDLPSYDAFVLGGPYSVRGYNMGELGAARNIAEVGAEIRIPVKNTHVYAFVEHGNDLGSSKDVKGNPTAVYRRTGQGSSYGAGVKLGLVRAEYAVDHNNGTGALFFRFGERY

Sequence of UniProt O81283 (O81283 whole entry): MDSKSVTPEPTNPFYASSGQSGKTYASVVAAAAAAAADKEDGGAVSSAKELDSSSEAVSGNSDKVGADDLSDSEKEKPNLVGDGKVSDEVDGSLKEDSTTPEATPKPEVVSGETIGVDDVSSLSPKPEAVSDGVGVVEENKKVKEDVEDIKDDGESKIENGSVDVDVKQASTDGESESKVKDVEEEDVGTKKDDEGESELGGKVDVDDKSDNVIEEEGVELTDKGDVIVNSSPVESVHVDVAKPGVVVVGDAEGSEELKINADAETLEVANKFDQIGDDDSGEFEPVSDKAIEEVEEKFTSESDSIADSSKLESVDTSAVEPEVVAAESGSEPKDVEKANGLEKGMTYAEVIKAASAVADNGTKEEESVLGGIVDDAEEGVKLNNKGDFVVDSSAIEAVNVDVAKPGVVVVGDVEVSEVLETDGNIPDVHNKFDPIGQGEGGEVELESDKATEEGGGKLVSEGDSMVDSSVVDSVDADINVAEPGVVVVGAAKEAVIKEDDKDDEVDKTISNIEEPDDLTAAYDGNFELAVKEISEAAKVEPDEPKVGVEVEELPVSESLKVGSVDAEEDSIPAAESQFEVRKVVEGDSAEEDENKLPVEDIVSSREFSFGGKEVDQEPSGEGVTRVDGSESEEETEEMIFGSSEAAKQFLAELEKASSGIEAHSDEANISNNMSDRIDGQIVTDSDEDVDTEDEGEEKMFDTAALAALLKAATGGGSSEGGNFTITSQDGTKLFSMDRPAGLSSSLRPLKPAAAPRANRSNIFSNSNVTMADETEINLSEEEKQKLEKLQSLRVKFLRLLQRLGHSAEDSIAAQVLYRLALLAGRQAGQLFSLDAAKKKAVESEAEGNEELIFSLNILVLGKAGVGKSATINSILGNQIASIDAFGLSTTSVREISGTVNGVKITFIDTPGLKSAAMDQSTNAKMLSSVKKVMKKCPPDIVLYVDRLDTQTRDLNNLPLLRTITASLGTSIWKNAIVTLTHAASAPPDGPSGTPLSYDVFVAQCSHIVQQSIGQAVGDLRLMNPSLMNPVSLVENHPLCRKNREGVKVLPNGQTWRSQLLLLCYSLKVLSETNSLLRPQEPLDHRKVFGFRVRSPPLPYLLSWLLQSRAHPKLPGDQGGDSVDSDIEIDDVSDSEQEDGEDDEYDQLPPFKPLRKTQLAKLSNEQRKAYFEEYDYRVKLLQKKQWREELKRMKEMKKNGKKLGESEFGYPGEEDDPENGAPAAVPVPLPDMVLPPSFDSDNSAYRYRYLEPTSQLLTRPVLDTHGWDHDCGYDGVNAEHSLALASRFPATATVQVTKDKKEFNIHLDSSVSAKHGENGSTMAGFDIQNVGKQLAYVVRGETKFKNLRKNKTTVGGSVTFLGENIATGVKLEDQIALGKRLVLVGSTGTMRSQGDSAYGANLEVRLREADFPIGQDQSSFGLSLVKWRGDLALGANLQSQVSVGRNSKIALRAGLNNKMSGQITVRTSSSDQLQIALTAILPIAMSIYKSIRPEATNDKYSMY

B1: GST-SP1flex (SP1 intermembrane space and cytosolic domains joined by a flexible linker, N-terminal GST tag) (enzyme, part only; not given: N-terminal GST tag)
chain, part: RSSGRDAEVLETVTRVNQLKELAQLLELDSKILPFIVAVSGRVGSETPIKCEHSGIRGVIVEETAEQHFLKHNETGSWVQDSALMLSMSKEVPWFLDDGTSRVHVMGARGATGFALTVGSEVFEESGRSLVRGTLDYLQGLKMLGVKRIERVLPTGIPLTIVGEAVKDDIGEFRIQKPDRGPFYVSSKSLDQLISNLGKWSRLYKIDSVLERRRRRQLQKRVLDAAAKRAELESEGSNGTRESISDSTKKEDAVPDLCVICLEQEYNAVFVPCGHMCCCTACSSHLTSCPLCRRRIDLAVKTYRH
[1]
  In vitro ubiquitination (high-molecular-weight species of radiolabelled substrate): for each TOC substrate the extent of ubiquitination was enhanced in the presence of SP1
[2]
  In vitro ubiquitination (high-molecular-weight species of radiolabelled substrate): for each TOC substrate the extent of ubiquitination was enhanced in the presence of SP1
[3]
  In vitro ubiquitination (high-molecular-weight species of radiolabelled substrate): for each TOC substrate the extent of ubiquitination was enhanced in the presence of SP1
